According to US20200231538, “NOVEL COMPOUNDS AND THERAPEUTICS USES THEREOF” (Centauri Therapeutics Limited (GB/GB), published 2020):

Legend:
EGFR [1] = biological target: T1, EGFR (Homo sapiens, UniProt P00533 P00533:25-1210); test: flow; 10 nM (9.8 at 1 uM); anti-alpha-Gal IgG recruitment to A431 cells; PBS, 5 mM MgCl2, RT; conditions: tags: A431 cells (ATCC CRL-1555), endogenous overexpression
Experimental: (§1) A431 cells (ATCC CRL-1555) were harvested and resuspended at 5×10⁶ cells/mL in phosphate buffered saline (PBS) (Sigma D8662)+0.1% BSA (Bovine Serum Albumin—Sigma A2153)+0.1 mg/mL Yeast t-RNA (Invitrogen 15401-011)+5 mM MgCl₂ (Sigma M1028) and incubated on ice for 30 minutes to block. 5×10⁵ cells were then incubated with compound at various concentrations as described below or buffer alone at room temperature, shaking at 450 rpm for 1 hour. The cells were washed with 3×200 μL PBS+0.1% BSA, prior to adding 50 μL of Anti-alpha galactosyl IgG antibody (custom purification from human IVIG, Rockland Immunochemicals, Inc.) at 35 μg/mL in PBS+0.1% BSA and incubating at 4° C. for 1 hour. The cells were further washed with 3×200 μL PBS+0.1% BSA before being treated with 100 μL 1:40 dilution of Anti-Human IgG-PE (phycoerythrin) (Biolegend 409303) at 4° C. for 1 hour. After a final wash of 3×200 μL PBS+0.1% BSA the cells were resuspended in 200 μL PBS+0.1% BSA and evaluated on a flow cytometer (FC500 Beckman Coulter). Data from all samples were analysed in the Kaluza software package (Beckman Coulter).
(§2) The fold shift over background was calculated by dividing the Mean Fluorescence Intensity (MFI) obtained in the presence of 10 nM or 1 μM alphamer by the Mean Fluorescence Intensity (MFI) obtained in the absence of alphamer. […]

EGFR [2] = biological target: T1, EGFR; test: flow; 10 nM (18.4 at 1 uM); anti-alpha-Gal IgG recruitment to A431 cells; PBS, 5 mM MgCl2, RT; conditions: tags: A431 cells (ATCC CRL-1555), endogenous overexpression
Experimental: as §1, §2

EGFR [3] = biological target: T1, EGFR; test: flow; 10 nM (16.3 at 1 uM); anti-alpha-Gal IgG recruitment to A431 cells; PBS, 5 mM MgCl2, RT; conditions: tags: A431 cells (ATCC CRL-1555), endogenous overexpression
Experimental: as §1, §2

EGFR [4] = biological target: T1, EGFR; test: flow; 10 nM (7.5 at 1 uM); anti-alpha-Gal IgG recruitment to A431 cells; PBS, 5 mM MgCl2, RT; conditions: tags: A431 cells (ATCC CRL-1555), endogenous overexpression
Experimental: as §1, §2

PSMA [5] = biological target: T2, PSMA (Homo sapiens, UniProt Q04609 Q04609:1-750); test: flow; 10 nM (11.1 at 1 uM); anti-alpha-Gal IgG recruitment to LNCaP cells; PBS, 5 mM MgCl2, RT; conditions: tags: LNCaP cells (ATCC CRL-1740), endogenous overexpression
T2 sequence (Q04609 whole entry, one chain of several): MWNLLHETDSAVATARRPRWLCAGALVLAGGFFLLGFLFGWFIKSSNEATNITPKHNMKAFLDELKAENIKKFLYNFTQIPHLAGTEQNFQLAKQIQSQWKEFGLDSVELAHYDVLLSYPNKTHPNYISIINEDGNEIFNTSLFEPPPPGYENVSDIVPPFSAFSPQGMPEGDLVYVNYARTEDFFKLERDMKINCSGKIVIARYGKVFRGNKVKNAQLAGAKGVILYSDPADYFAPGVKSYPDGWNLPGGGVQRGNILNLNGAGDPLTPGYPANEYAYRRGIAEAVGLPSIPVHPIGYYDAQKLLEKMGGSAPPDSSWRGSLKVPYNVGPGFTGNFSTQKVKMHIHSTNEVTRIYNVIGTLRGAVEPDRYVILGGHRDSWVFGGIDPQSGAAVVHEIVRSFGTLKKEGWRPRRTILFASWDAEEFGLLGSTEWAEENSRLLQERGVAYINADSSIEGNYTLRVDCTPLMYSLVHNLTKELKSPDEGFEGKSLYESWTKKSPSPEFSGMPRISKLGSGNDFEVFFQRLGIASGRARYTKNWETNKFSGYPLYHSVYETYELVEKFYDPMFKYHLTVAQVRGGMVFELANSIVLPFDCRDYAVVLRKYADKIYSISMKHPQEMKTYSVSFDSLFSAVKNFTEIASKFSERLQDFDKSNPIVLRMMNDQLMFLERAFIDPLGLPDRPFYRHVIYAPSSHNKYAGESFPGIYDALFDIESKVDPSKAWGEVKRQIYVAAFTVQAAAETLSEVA
Experimental: as §1, with “LNCaP” for “A431”, “CRL-1740)” for “CRL-1555)”, “The cells were washed with 3×200 μL PBS+0.1% BSA, prior to adding 50 μL of Anti-alpha galactosyl IgG antibody (custom purification from human IVIG, Rockland Immunochemicals, Inc.) at 35 μg/mL in PBS+0.1% BSA and incubating at 4° C. for 1 hour.” left out
as §2, with “alphamer. The fold shift over background is reported as a geometric mean with standard error in brackets. The number of independent experiments is also reported.” for “alphamer.”

PSMA [6] = biological target: T2, PSMA; test: flow; 10 nM (8.5 at 1 uM); anti-alpha-Gal IgG recruitment to LNCaP cells; PBS, 5 mM MgCl2, RT; conditions: tags: LNCaP cells (ATCC CRL-1740), endogenous overexpression
Experimental: as §1, with “LNCaP” for “A431”, “CRL-1740)” for “CRL-1555)”, “The cells were washed with 3×200 μL PBS+0.1% BSA, prior to adding 50 μL of Anti-alpha galactosyl IgG antibody (custom purification from human IVIG, Rockland Immunochemicals, Inc.) at 35 μg/mL in PBS+0.1% BSA and incubating at 4° C. for 1 hour.” left out
as §2, with “alphamer. The fold shift over background is reported as a geometric mean with standard error in brackets. The number of independent experiments is also reported.” for “alphamer.”

PSMA [7] = biological target: T2, PSMA; test: flow; 10 nM (8.6 at 1 uM); anti-alpha-Gal IgG recruitment to LNCaP cells; PBS, 5 mM MgCl2, RT; conditions: tags: LNCaP cells (ATCC CRL-1740), endogenous overexpression
Experimental: as §1, with “LNCaP” for “A431”, “CRL-1740)” for “CRL-1555)”, “The cells were washed with 3×200 μL PBS+0.1% BSA, prior to adding 50 μL of Anti-alpha galactosyl IgG antibody (custom purification from human IVIG, Rockland Immunochemicals, Inc.) at 35 μg/mL in PBS+0.1% BSA and incubating at 4° C. for 1 hour.” left out
as §2, with “alphamer. The fold shift over background is reported as a geometric mean with standard error in brackets. The number of independent experiments is also reported.” for “alphamer.”

B1: Example 1 (EGFR aptamer 1-alpha-Gal double cluster 1) (ssRNA)
RNA: GGGAUUUAAUCGCCGUAGAAAAGCAUGUCAAAGCCGGAACCC
modifications: 2'-F pyrimidines, 2'-OMe at most purines (mG, most mA), remaining A 2'-OH; 5' H2N-(CH2)6 linked to alpha-Gal cluster; 3' idT
EGFR [1]
  binding signal: 7.7 fold MFI over background

B2: Example 2 (EGFR aptamer 1-alpha-Gal double cluster 2) (ssRNA)
RNA: GGGAUUUAAUCGCCGUAGAAAAGCAUGUCAAAGCCGGAACCC
modifications: 2'-F pyrimidines, 2'-OMe at most purines (mG, most mA), remaining A 2'-OH; 5' H2N-(CH2)6 linked to alpha-Gal cluster; 3' idT
EGFR [2]
  binding signal: 10.7 fold MFI over background

B3: Example 3 (EGFR aptamer 1-alpha-Gal double cluster 3) (ssRNA)
RNA: GGGAUUUAAUCGCCGUAGAAAAGCAUGUCAAAGCCGGAACCC
modifications: 2'-F pyrimidines, 2'-OMe at most purines (mG, most mA), remaining A 2'-OH; 5' H2N-(CH2)6 linked to alpha-Gal cluster; 3' idT
EGFR [3]
  binding signal: 9.7 fold MFI over background

B4: Example 4 (EGFR aptamer 1-alpha-Gal double cluster 4) (ssRNA)
RNA: GGGAUUUAAUCGCCGUAGAAAAGCAUGUCAAAGCCGGAACCC
modifications: 2'-F pyrimidines, 2'-OMe at most purines (mG, most mA), remaining A 2'-OH; 5' H2N-(CH2)6 linked to alpha-Gal cluster; 3' idT
EGFR [4]
  binding signal: 3.4 fold MFI over background

B5: Example 5 (PSMA aptamer A9g-alpha-Gal double cluster 1) (ssRNA)
RNA: GGGACCGAAAAAGACCUGACUUCUAUACUAAGUCUACGUUCCC
modifications: 2'-F pyrimidines, 2'-OH purines; 5' H2N-(CH2)6 linked to alpha-Gal cluster; 3' idT
PSMA [5]
  binding signal: 7.8 fold MFI over background

B6: Example 6 (PSMA aptamer A9g-alpha-Gal double cluster 5) (ssRNA)
RNA: GGGACCGAAAAAGACCUGACUUCUAUACUAAGUCUACGUUCCC
modifications: 2'-F pyrimidines, 2'-OH purines; 5' H2N-(CH2)6 linked to alpha-Gal cluster; 3' idT
PSMA [6]
  binding signal: 5.33 fold MFI over background

B7: Example 7 (PSMA aptamer A9g-alpha-Gal double cluster 2) (ssRNA)
RNA: GGGACCGAAAAAGACCUGACUUCUAUACUAAGUCUACGUUCCC
modifications: 2'-F pyrimidines, 2'-OH purines; 5' H2N-(CH2)6 linked to alpha-Gal cluster; 3' idT
PSMA [7]
  binding signal: 3.82 fold MFI over background
